Results: article PMC8018780 (2021)
Ends that are not written are not given here.

Experiments:
Assay in all cases: SPR
[1] = target: recombinant human transferrin receptor (TfR) protein (human, UniProt P02786 101-760)
[2] = target: low-density lipoprotein receptor-related protein 1 (LRP-1), human (human)
[3] = target: recombinant mouse transferrin receptor (TfR) protein (mouse, UniProt Q62351 1-763)
recombinant mouse transferrin receptor (TfR) protein, sequence (Q62351 89-763): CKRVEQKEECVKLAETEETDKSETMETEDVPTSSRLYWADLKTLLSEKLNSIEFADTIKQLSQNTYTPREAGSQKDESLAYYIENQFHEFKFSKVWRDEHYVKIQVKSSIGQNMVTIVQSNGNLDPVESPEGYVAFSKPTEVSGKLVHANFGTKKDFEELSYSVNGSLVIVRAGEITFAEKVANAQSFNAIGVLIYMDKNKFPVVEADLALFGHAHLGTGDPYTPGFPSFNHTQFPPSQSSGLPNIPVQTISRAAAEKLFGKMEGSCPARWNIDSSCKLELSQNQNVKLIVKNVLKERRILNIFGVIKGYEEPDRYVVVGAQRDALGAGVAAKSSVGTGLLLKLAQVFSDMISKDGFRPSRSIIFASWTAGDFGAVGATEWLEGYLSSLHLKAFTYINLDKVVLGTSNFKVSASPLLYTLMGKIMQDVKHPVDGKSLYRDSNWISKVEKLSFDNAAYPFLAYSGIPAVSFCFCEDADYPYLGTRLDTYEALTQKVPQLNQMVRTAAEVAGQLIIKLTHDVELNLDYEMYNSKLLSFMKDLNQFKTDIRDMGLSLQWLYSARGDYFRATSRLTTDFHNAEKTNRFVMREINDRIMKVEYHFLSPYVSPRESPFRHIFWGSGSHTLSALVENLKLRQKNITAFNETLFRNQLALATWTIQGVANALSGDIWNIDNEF

recombinant human transferrin receptor (TfR) protein, sequence (P02786 101-760): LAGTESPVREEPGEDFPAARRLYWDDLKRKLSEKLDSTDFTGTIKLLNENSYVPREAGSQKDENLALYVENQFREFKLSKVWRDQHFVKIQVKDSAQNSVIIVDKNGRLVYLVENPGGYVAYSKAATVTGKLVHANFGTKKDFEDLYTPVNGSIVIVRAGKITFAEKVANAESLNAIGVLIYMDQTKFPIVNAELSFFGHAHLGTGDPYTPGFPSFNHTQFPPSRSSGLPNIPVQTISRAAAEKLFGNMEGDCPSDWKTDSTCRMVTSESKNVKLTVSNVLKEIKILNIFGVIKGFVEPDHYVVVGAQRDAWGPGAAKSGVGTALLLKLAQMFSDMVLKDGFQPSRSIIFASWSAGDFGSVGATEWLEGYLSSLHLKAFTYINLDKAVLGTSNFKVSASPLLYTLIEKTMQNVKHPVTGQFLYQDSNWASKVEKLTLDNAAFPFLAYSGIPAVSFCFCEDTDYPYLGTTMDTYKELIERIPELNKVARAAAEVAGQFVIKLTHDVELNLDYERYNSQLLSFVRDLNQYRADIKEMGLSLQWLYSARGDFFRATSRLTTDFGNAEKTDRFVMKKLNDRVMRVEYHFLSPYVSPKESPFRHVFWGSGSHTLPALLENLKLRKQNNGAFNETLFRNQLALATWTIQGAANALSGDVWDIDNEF

Row | Kd [1] [nM] | Kd [2] [nM] | Kd [3] [nM] | Binder
1 | 171000 | 100 | – | GYRPVHNIRGHWAPGK-NH2 [GYR (peptide 2)]
2 | 507 | 0.57 | 1300 | FRCLVENRGDVPFVTRIR-NH2 [MTfp (peptide 1), peptide derived from melanotransferrin]
